Consider one molecule from patent publication US11884740 (TG THERAPEUTICS, dated 2024).

Common to all, as to assay: cell-based or functional assay
Assay [1] addresses T1, FcγIIIA Receptor on the effector cells (human, UniProt P08637 17-254).
The target in assay [2] is T1, FcγIIIA Receptor on the effector cells. This is another data set of the same source.
The target of assay [3] is C1q Receptor in the complement system (rabbit serum as the source of complement) (rabbit).

T1 sequence (P08637 17-254): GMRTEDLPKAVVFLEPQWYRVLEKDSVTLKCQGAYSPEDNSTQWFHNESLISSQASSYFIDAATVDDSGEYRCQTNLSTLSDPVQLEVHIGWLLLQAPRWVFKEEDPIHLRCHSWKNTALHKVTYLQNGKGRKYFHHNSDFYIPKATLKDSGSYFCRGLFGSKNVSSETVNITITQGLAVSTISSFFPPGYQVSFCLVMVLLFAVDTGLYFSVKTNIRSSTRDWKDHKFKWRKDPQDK

B1: TG-1101 (TG Therapeutics, Inc.) (antibody, human IgG1, kappa)
heavy: not shown
light: QIVLSQSPAILSASPGEKVTMTCRASSSVSYMHWYQQKPGSSPKPWIYATSNLASGVPARFSGSGSGTSYSFTISRVEAEDAATYYCQQWTFNPPTFGGGTRLEIKRTVAAPSVFIFPPSDEQLKSGTASVVCLLNNFYPREAKVQWKVDNALQSGNSQESVTEQDSKDSTYSLSSTLTLSKADYEKHKVYACEVTHQGLSSPVTKSFNRGEC
Consider B1, for which the “EC50 (ADCC, Raji targets, KILR CD16a effector cells)” value in assay [1] was determined as 0.00242 ng/mL. Moreover, the “EC50 of ADCC assay Using Primary NK Cells (Raji targets, LDH release)” value in assay [2] was 49000 ng/mL. The “EC50 (CDC, Jeko-1 cells, rabbit complement)” value in assay [3] is 670 ng/mL.
